In the supplement of paper PMC9732359:
± gives the uncertainty stated by the source.

Experiment: protein stability index of a GFP-peptide fusion (yeast GPS) (PSI 1-4); higher = more stable; sorted into four equal gates, so the index is relative within each strain
Procedure, shortened: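 The protein stability index of a peptide was calculated by multiplying its read frequency in each gate by that gate's number and adding the products. The peptides were tiled 17-residue stretches of yeast proteins, fused downstream of GFP on a Cherry-expressing plasmid and carried in yeast as a pooled library. Mid-log cultures in leucine-free medium were sorted into four equal gates by GFP/Cherry ratio, and each gate's plasmids were PCR-amplified and Illumina-sequenced.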

Row | Sequence | protein stability index (doa10∆) | protein stability index (pdr5∆) | protein stability index (san1∆) | protein stability index (ubr1∆)
1 | GDIESLFEQLQTVSNKE [SRP54] | 3.08 ± 0.098 | 2.87 ± 0.079 | 3.18 ± 0.045 | 3.12 ± 0.046
2 | GDLASLVLLNGRLRNKS [RPP1] | 2.83 ± 0.054 | 2.85 ± 0.041 | 2.83 ± 0.04 | 2.81 ± 0.038
3 | GDQFLRYVNLLGVTYSS [PRE4] | 2.27 ± 0.1 | 2.33 ± 0.062 | 2.1 ± 0.075 | 2.02 ± 0.042
4 | GDRGALARASGNYVIII [RPL2A] | 2.82 ± 0.11 | 2.81 ± 0.11 | 2.84 ± 0.11 | 2.75 ± 0.14
5 | GDRQRLGEEHPLQVARC [RPT1] | 1.43 ± 0.097 | 1.32 ± 0.19 | 3.25 ± 0.22 | 1.53 ± 0.15
6 | GDVSSGLFEKSTVSANH [BRN1] | 2.84 ± 0.12 | 3.31 ± 0.094 | 2.74 ± 0.11 | 
7 | GDYSQATVLSRKILKKT [RPN5] | 2.68 ± 0.054 | 2.87 ± 0.067 | 2.75 ± 0.06 | 2.95 ± 0.051
8 | GEIGDFFSSDWRFLQIL [POP1] | 2.73 ± 0.089 | 2.79 ± 0.09 | 2.94 ± 0.066 | 2.55 ± 0.093
9 | GEIQLLFQRQKLHEFYL [IRR1] | 2.71 ± 0.12 | 2.96 ± 0.075 | 2.63 ± 0.061 | 2.9 ± 0.16
10 | GEITKTENEKFISYHDK [NUT1] | 3.31 ± 0.097 | 3.35 ± 0.077 | 3.39 ± 0.057 | 3.17 ± 0.079
11 | GEKNFTSAHLKLKEMQK [SMC4] | 3.01 ± 0.14 | 3.35 ± 0.12 | 3.27 ± 0.078 | 3.14 ± 0.24
12 | GEKNSDDYSNEDNEMLE [YJR042W/NUP85] |  |  | 2.06 ± 0.29 | 1.89 ± 0.14
13 | GELFLNESWKSSFEKFN [SRP72] | 3.23 ± 0.23 | 3.22 ± 0.11 | 2.79 ± 0.12 | 3.24 ± 0.073
14 | GEQIIVHPVNEREPVPL [RRP45] | 2.85 ± 0.12 | 3.35 ± 0.12 |  | 2.9 ± 0.17
15 | GFIDASCIAVMAGLMHF [RRP45] | 1.48 ± 0.041 | 1.55 ± 0.04 | 1.85 ± 0.082 | 1.46 ± 0.031
16 | GFPSAPQPLFMEDPPST [YMR153W/NUP53] | 2.66 ± 0.06 | 3.08 ± 0.056 | 2.98 ± 0.053 | 2.8 ± 0.052
17 | GGDSDANGTFMDFGVDP [RPN10] |  |  | 3.23 ± 0.13 | 2.96 ± 0.25
18 | GGEKTVAALALLFAINS [SMC1] | 1.2 ± 0.078 | 1.27 ± 0.092 | 1.12 ± 0.23 | 1.9 ± 0.14
19 | GGESDSALILMYKGFGL [UBP6] | 3.37 ± 0.07 | 3.41 ± 0.076 | 3.15 ± 0.085 | 3.29 ± 0.055
20 | GGIVTVRSEMGEPIHKI [FAS1] | 3.29 ± 0.18 | 2.91 ± 0.21 |  | 
21 | GGLKSCDLDFPLRENTN [YDL116W/NUP84] | 2.59 ± 0.058 | 2.29 ± 0.059 | 2.25 ± 0.077 | 2.2 ± 0.057
22 | GGLQKGKLVVSQEMVPR [SIR3] | 3.03 ± 0.07 | 2.83 ± 0.13 | 2.32 ± 0.076 | 3.23 ± 0.12
23 | GGLTKQIKEIKEVIELP [RPT6] | 3.74 ± 0.27 |  | 3.48 ± 0.27 | 
24 | GGNFKDLSTLVHSSSPS [GAL11] | 1.48 ± 0.056 | 1.46 ± 0.045 | 1.59 ± 0.089 | 1.38 ± 0.059
25 | GGNSNKSPPQFFYNISS [SIN4] | 2.76 ± 0.043 | 3.04 ± 0.049 | 2.76 ± 0.037 | 2.58 ± 0.041
26 | GGRMFAPTKTWRKWNVK [RPL4A] | 2.87 ± 0.12 | 2.88 ± 0.11 | 3.07 ± 0.065 | 2.16 ± 0.056
27 | GGTSLFGNTSTSSAPAQ [YGL172W/NUP49] | 2.17 ± 0.17 | 2.19 ± 0.096 |  | 2.15 ± 0.091
28 | GGVDVGPSVESYELRNT [SNF5] | 2.9 ± 0.1 | 3.15 ± 0.11 | 3.04 ± 0.075 | 3.28 ± 0.079
